# Laboratory results reported in article PMC10164551, “Structural basis of tRNAPro acceptor stem recognition by a bacterial trans-editing domain”.
# T1: ProXp-ala WT (Caulobacter crescentus, UniProt Q9ABV9 1-168)
# T1 sequence: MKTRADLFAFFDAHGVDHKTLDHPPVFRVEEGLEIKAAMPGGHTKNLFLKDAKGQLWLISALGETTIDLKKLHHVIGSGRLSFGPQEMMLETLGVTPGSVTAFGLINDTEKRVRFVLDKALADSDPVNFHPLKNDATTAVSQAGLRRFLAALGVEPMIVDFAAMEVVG
# B1: duplexPro A76 (WT) (dsRNA)
# RNA 1: CGGCGAGGGAGGUU
# RNA 2: AUCCUCUCUCGCCGACCA
# B2: duplexPro A76C (dsRNA)
# RNA 1: CGGCGAGGGAGGUU
# RNA 2: AUCCUCUCUCGCCGACCC
# B3: duplexPro ΔA76 (dsRNA)
# RNA 1: CGGCGAGGGAGGUU
# RNA 2: AUCCUCUCUCGCCGACC
# B4: duplexPro 3'pΔA76 (dsRNA)
# RNA 1: CGGCGAGGGAGGUU
# RNA 2: AUCCUCUCUCGCCGACC
# modifications: 3' phosphate on terminal C of strand 2
# B5: duplexPro A76G (dsRNA)
# RNA 1: CGGCGAGGGAGGUU
# RNA 2: AUCCUCUCUCGCCGACCG
# B6: duplexPro A76U (dsRNA)
# RNA 1: CGGCGAGGGAGGUU
# RNA 2: AUCCUCUCUCGCCGACCU
# B7: duplexPro dA76 (dsRNA)
# RNA 1: CGGCGAGGGAGGUU
# RNA 2: AUCCUCUCUCGCCGACCA
# modifications: 2'-deoxy-A at 3' terminus of strand 2
# Key:
# ProXp-ala WT [1] = target: T1, ProXp-ala WT; assay: EMSA; apparent, Hill fit; EMSA: 81 nM duplex annealed in 50 mM sodium phosphate pH 7.5, 150 mM NaCl, 0-114 μM protein, 1 h room temp, 16% native gel in TBE; NMR: same phosphate buffer, 1; details: protein: recombinant, tags: N-terminal His6 removed by thrombin, leaves Gly-Ser-His, label: 3' 6FAM on strand 1
# ProXp-ala WT [2] = target: T1, ProXp-ala WT; assay: NMR; 100 μM each; indistinguishable from microhelixPro; EMSA: 81 nM duplex annealed in 50 mM sodium phosphate pH 7.5, 150 mM NaCl, 0-114 μM protein, 1 h room temp, 16% native gel in TBE; NMR: same phosphate buffer, 1; details: protein: recombinant; tags: N-terminal His6 removed by thrombin; leaves Gly-Ser-His; hairpin; 12 bp stem, 3' ACCA single-stranded
# ProXp-ala WT [3] = target: T1, ProXp-ala WT; assay: NMR; 100 μM each; EMSA: 81 nM duplex annealed in 50 mM sodium phosphate pH 7.5, 150 mM NaCl, 0-114 μM protein, 1 h room temp, 16% native gel in TBE; NMR: same phosphate buffer, 1; details: protein: recombinant; tags: N-terminal His6 removed by thrombin; leaves Gly-Ser-His; hairpin; 7 bp stem, 3' ACCA single-stranded
binder,measurement,setting,value
B1,Kd,ProXp-ala WT [1]; 3' overhang 4 nt (ACCA) on strand 2,33 ± 11 µM
B2,Kd,ProXp-ala WT [1]; 3' overhang 4 nt on strand 2,87 ± 4 µM
B3,Kd,ProXp-ala WT [1]; 3' overhang 3 nt on strand 2,75 ± 12 µM
B4,Kd,ProXp-ala WT [1]; 3' overhang 3 nt on strand 2,63 ± 11 µM
B5,Kd,ProXp-ala WT [1]; 3' overhang 4 nt on strand 2,66 ± 11 µM
CGGCGAGGGAGGUUCGAAUCCUCUCUCGCCGACCA (structured_RNA) [minihelixPro],binding result,ProXp-ala WT [2],binds
B6,Kd,ProXp-ala WT [1]; 3' overhang 4 nt on strand 2,106 ± 16 µM
CGGCGAGUUCGCUCGCCGACCA (structured_RNA) [microhelixPro],binding result,ProXp-ala WT [3],binds
B7,Kd,ProXp-ala WT [1]; 3' overhang 4 nt on strand 2,34 ± 5 µM
